Source: the supplement of paper PMC10567573

B1: ATE1 (parent)
chain: YGSFHQQYWLDGKIIAVGVIDILP

Variants of: B1
Assay: protein stability index of a GFP-peptide fusion (GPS, HEK-293T) (PSI 1-6); higher = more stable
Conditions: c terminus: a fixed tail appended
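Note: lentivirally expressed fusions sorted by FACS into six bins by GFP to DsRed ratio, PSI derived from sequencing read proportions per bin multiplied by bin number.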

First: YGSFHQQYWLDGKIIAVGVIMILP [D21M]
Second: YGSFHQQYWLDGKIIAVGVINILP [D21N]
The protein stability index of the first is lower: 1.81 for the first, 2.85 for the second.

Compared with YGSFHQQYWLDGKIIAVGVIYILP [D21Y], YGSFHQQYWLDGKIIAVGVIEILP [D21E] is higher in protein stability index: 1.97 for the first, 3.01 for the second.

Going from YGSFHQQYWLDGKIIAVGVIWILP [D21W] to YGSFHQQYWLDGKIIAVGVIPILP [D21P], the protein stability index falls from 4.17 to 2.97.

Going from YGSFHQQYWLDGKIIAVGVICILP [D21C] to YGSFHQQYWLDGKIIAVGVIIILP [D21I], the protein stability index falls from 3.23 to 2.97.

Compared with YGSFHQQYWLDGKIIAVGVIRILP [D21R], YGSFHQQYWLDGKIIAVGVITILP [D21T] is lower in protein stability index: 3.36 for the first, 3 for the second.

Going from YGSFHQQYWLDGKIIAVGVIFILP [D21F] to YGSFHQQYWLDGKIIAVGVISILP [D21S], the protein stability index falls from 4.18 to 3.23.

First: YGSFHQQYWLDGKIIAVGVIQILP [D21Q]
Second: YGSFHQQYWLDGKIIAVGVIVILP [D21V]
The protein stability index of the first is lower: 3.26 for the first, 4.01 for the second.

Compared with YGSFHQQYWLDGKIIAWGVIDILP [V17W], YGSFHQQYWLDGKIIAHGVIDILP [V17H] is higher in protein stability index: 3 for the first, 3.08 for the second.

First: YGSFHQQYWLDGKIIATGVIDILP [V17T]
Second: YGSFHQQYWLDGKIIALGVIDILP [V17L]
The protein stability index of the first is higher: 3.29 for the first, 2.42 for the second.

First: YGSFHQQYWLDGKIIANGVIDILP [V17N]
Second: YGSFHQQYWLDGKIIAMGVIDILP [V17M]
The protein stability index of the first is lower: 2.82 for the first, 3.42 for the second.

First: YGSFHQQYWLDGKIIADGVIDILP [V17D]
Second: YGSFHQQYWLDGKIIACGVIDILP [V17C]
The protein stability index of the first is lower: 2.26 for the first, 3.27 for the second.

Going from YGSFHQQYWLDGKIIAPGVIDILP [V17P] to YGSFHQQYWLDGKIIARGVIDILP [V17R], the protein stability index rises from 1.66 to 3.21.

Going from YGSFHQQYWLDGKIIAIGVIDILP [V17I] to YGSFHQQYWLDGKIIAYGVIDILP [V17Y], the protein stability index rises from 1.95 to 2.91.

Going from YGSFHQQYWLDGKIIAFGVIDILP [V17F] to YGSFHQQYWLDGKIIAVGCIDILP [V19C], the protein stability index falls from 4.21 to 2.56.

Going from YGSFHQQYWLDGKIIAVGAIDILP [V19A] to YGSFHQQYWLDGKIIAVGKIDILP [V19K], the protein stability index falls from 2.67 to 1.77.

Going from YGSFHQQYWLDGKIIAVGLIDILP [V19L] to YGSFHQQYWLDGKIIAVGMIDILP [V19M], the protein stability index rises from 2.41 to 2.91.

Compared with YGSFHQQYWLDGKIIAVGEIDILP [V19E], YGSFHQQYWLDGKIIAVGQIDILP [V19Q] is higher in protein stability index: 1.71 for the first, 2.97 for the second.

First: YGSFHQQYWLDGKIIAVGYIDILP [V19Y]
Second: YGSFHQQYWLDGKIIAVGSIDILP [V19S]
The protein stability index of the first is lower: 2.91 for the first, 2.97 for the second.

First: YGSFHQQYWLDGKIIAVGPIDILP [V19P]
Second: YGSFHQQYWLDGKIIAVGDIDILP [V19D]
The protein stability index of the first is lower: 3.09 for the first, 3.87 for the second.

First: YGSFHQQYWLDGKIIAVGTIDILP [V19T]
Second: YGSFHQQYWLDGKIIAVGFIDILP [V19F]
The protein stability index of the first is lower: 2.49 for the first, 3.06 for the second.

Going from YGSFHQQYWLDGKIIAVGRIDILP [V19R] to YGSFHQQYWLDGKIIAVGWIDILP [V19W], the protein stability index falls from 2.92 to 2.06.

Going from YGSFHQQYWLDGKIIAVGIIDILP [V19I] to YGSFHQQYWLDGKIIAVGVIDIEP [L23E], the protein stability index falls from 2.64 to 1.4.

First: YGSFHQQYWLDGKIIAVGVIDIAP [L23A]
Second: YGSFHQQYWLDGKIIAVGVIDIPP [L23P]
The protein stability index of the first is higher: 4.34 for the first, 2.72 for the second.

Compared with YGSFHQQYWLDGKIIAVGVIDIMP [L23M], YGSFHQQYWLDGKIIAVGVIDIIP [L23I] is higher in protein stability index: 1.78 for the first, 2.34 for the second.

Going from YGSFHQQYWLDGKIIAVGVIDIGP [L23G] to YGSFHQQYWLDGKIIAVGVIDIHP [L23H], the protein stability index falls from 2.94 to 2.

Going from YGSFHQQYWLDGKIIAVGVIDIKP [L23K] to YGSFHQQYWLDGKIIAVGVIDIDP [L23D], the protein stability index rises from 2.49 to 2.88.

Compared with YGSFHQQYWLDGKIIAVRVIDILP [G18R], YGSFHQQYWLDGKIIAVKVIDILP [G18K] is lower in protein stability index: 3.77 for the first, 3.6 for the second.

First: YGSFHQQYWLDGKIIAVEVIDILP [G18E]
Second: YGSFHQQYWLDGKIIAVSVIDILP [G18S]
The protein stability index of the first is lower: 2.28 for the first, 3.06 for the second.

First: YGSFHQQYWLDGKIIAVYVIDILP [G18Y]
Second: YGSFHQQYWLDGKIIAVCVIDILP [G18C]
The protein stability index of the first is lower: 1.96 for the first, 4.11 for the second.

Going from YGSFHQQYWLDGKIIAVAVIDILP [G18A] to YGSFHQQYWLDGKIIAVNVIDILP [G18N], the protein stability index falls from 3.13 to 2.31.

Going from YGSFHQQYWLDGKIIAVIVIDILP [G18I] to YGSFHQQYWLDGKIIAVQVIDILP [G18Q], the protein stability index falls from 3.47 to 3.22.

First: YGSFHQQYWLDGKIIAVPVIDILP [G18P]
Second: YGSFHQQYWLDGKIIAVWVIDILP [G18W]
The protein stability index of the first is lower: 2.39 for the first, 2.81 for the second.

Compared with YGSFHQQYWLDGKIIAVFVIDILP [G18F], YGSFHQQYWLDGKIIAVTVIDILP [G18T] is higher in protein stability index: 2.53 for the first, 4.01 for the second.

Going from YGSFHQQYWLDGKIIAVLVIDILP [G18L] to YGSFHQQYWLDGKIIAVGVRDILP [I20R], the protein stability index rises from 1.9 to 2.48.

Compared with YGSFHQQYWLDGKIIAVGVCDILP [I20C], YGSFHQQYWLDGKIIAVGVMDILP [I20M] is higher in protein stability index: 1.22 for the first, 2.59 for the second.

Compared with YGSFHQQYWLDGKIIAVGVLDILP [I20L], YGSFHQQYWLDGKIIAVGVFDILP [I20F] is higher in protein stability index: 3.46 for the first, 4.08 for the second.

Compared with YGSFHQQYWLDGKIIAVGVYDILP [I20Y], YGSFHQQYWLDGKIIAVGVSDILP [I20S] is higher in protein stability index: 1.81 for the first, 2.38 for the second.

Going from YGSFHQQYWLDGKIIAVGVWDILP [I20W] to YGSFHQQYWLDGKIIAVGVADILP [I20A], the protein stability index rises from 1.38 to 3.4.

Going from YGSFHQQYWLDGKIIAVGVPDILP [I20P] to YGSFHQQYWLDGKIIAVGVEDILP [I20E], the protein stability index falls from 2.53 to 1.65.

First: YGSFHQQYWLDGKIIAVGVDDILP [I20D]
Second: YGSFHQQYWLDGKIIAVGVIDHLP [I22H]
The protein stability index of the first is lower: 2.41 for the first, 2.9 for the second.

Compared with YGSFHQQYWLDGKIIAVGVIDWLP [I22W], YGSFHQQYWLDGKIIAVGVIDFLP [I22F] is higher in protein stability index: 2.77 for the first, 2.93 for the second.

Compared with YGSFHQQYWLDGKIIAVGVIDMLP [I22M], YGSFHQQYWLDGKIIAVGVIDALP [I22A] is higher in protein stability index: 3.15 for the first, 3.85 for the second.

Compared with YGSFHQQYWLDGKIIAVGVIDYLP [I22Y], YGSFHQQYWLDGKIIAVGVIDTLP [I22T] is lower in protein stability index: 2.23 for the first, 1.74 for the second.

First: YGSFHQQYWLDGKIIAVGVIDELP [I22E]
Second: YGSFHQQYWLDGKIIAVGVIDQLP [I22Q]
The protein stability index of the first is higher: 3.75 for the first, 2.42 for the second.

Compared with YGSFHQQYWLDGKIIAVGVIDKLP [I22K], YGSFHQQYWLDGKIIAVGVIDRLP [I22R] is higher in protein stability index: 1.43 for the first, 2.18 for the second.

First: YGSFHQQYWLDGKIIAVGVIDVLP [I22V]
Second: YGSFHQQYWLDGKIIAVGVIDDLP [I22D]
The protein stability index of the first is lower: 2.14 for the first, 2.81 for the second.

Compared with YGSFHQQYWLDGKIIAVGVIDSLP [I22S], YGSFHQQYWLDGKIIAVGVIDPLP [I22P] is lower in protein stability index: 3.81 for the first, 3.32 for the second.
